Experimental data reported in PMC9294000, “Structural basis for the simultaneous recognition of NEMO and acceptor ubiquitin by the HOIP NZF1 domain” (Scientific Reports, 2022).

T1: human HOIP NZF1 (hHOIP NZF1, aa. 350–379) (human, UniProt Q96EP0 350-379)
T1 construct: HOIP, human, NZF1 domain, residues 350-379; Cloned into pGEX-6p-1; also called Npl4 zinc finger 1 domain of HOIP; source: E. coli BL21 (DE3), purified (Glutathione Sepharose 4B, on-column PreScission cleavage, Superdex 75); not shown: GST, N-terminal, cleaved
T1 chain (looked up): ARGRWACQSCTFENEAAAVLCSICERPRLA


Assays:
[1] = target: T2, mouse NEMO (mNEMO, a.a. 250–339, corresponding to hNEMO 257–346) (mouse, UniProt O88522 250-339); assay: SPR; Biacore S200; GST-HOIP NZF1 held on anti-GST antibodies amine-coupled to a CM5 chip, GST as control; analytes in 10 mM HEPES pH 7.4, 150 mM NaCl, 0.005% P20; mono-ubiquitin 288.0-1.1 µM, mNEMO 100.0-0.4 µM; equilibrium KD; duplicate; settings: both partners purified
T2 construct: NEMO (IKKγ), mouse, residues 250-339; Cloned into pET-28a downstream of the 6xHis tag; source: E. coli BL21 (DE3), purified (Talon beads, on-column thrombin cleavage, size-exclusion chromatography); not shown: His6, N-terminal, cleaved
T2 sequence (O88522 250-339): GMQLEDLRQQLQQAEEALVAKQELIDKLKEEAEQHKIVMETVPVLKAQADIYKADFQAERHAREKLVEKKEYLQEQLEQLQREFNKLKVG

mono-ubiquitin = target: T3, mono-ubiquitin (UniProt P0CG48 1-76); assay: as above; settings: both partners purified
T3 construct: ubiquitin (mono-ubiquitin); The methods describe neither a plasmid nor a supplier for the mono-ubiquitin

[2] = target: T1, human HOIP NZF1 (hHOIP NZF1, aa. …); assay: crystal structure; hHOIP NZF1, hNEMO and linear di-ubiquitin purified separately, mixed in an equimolar ratio; sitting drops, 0.1 M Tris-HCl pH 8.5, 22% v/v PEG Smear Broad; 4.2 Å; heteropentameric complex; settings: both partners purified
linear diubiquitin = target: T4, linear diubiquitin (UniProt P0CG48 1-76; P0CG48 1-76); assay: as above; settings: both partners purified
T4 construct: ubiquitin, the N-terminal (distal) unit of the head-to-tail chain; its C-terminal Gly is joined to Met1 of the next ubiquitin; ubiquitin, the C-terminal (proximal) unit of the head-to-tail chain, residues 1-76 (Leu73-Gly76 not visible in the map); Two ubiquitins on one chain, expressed from pGEX-4T-1; also called linear diubiquitin chain; source: E. coli, purified (Glutathione Sepharose 4B, …)

[3] = target: the molecule itself; assay: as above

Kd [1] [µM]	Kd (mono-ubiquitin) [µM]	stoichiometry N [2] [NEMO chains per NZF1]	binding result (linear diubiquitin)	Binder	stoichiometry N [3]
86.7	135			ARGRWACQSCTFENEAAAVLCSICERPRLA (domain or fragment, human, UniProt Q96EP0 350-379, looked up, HOIP, human, NZF1 domain, residues 350-379; Held on the SPR chip by anti-GST antibodies; how the uncleaved fusion was purified is not described; source: E. coli BL21 (DE3), expressed as GST-fusion protein; not shown: GST, N-terminal, kept) [GST-HOIP NZF1(a.a. 350–379)]	
		2	binds	human NEMO (hNEMO, aa. 257–346) (domain or fragment, UniProt Q9Y6K9 257-346, looked up, NEMO (IKKγ), human, residues 257-346 (CoZi region with the UBAN domain); Coiled-coil homodimer in the crystal; Cloned into pGEX-6p-1; also called NEMO CoZi; NEMO coiled-coil 2/zinc finger (CoZi); source: E. coli BL21 (DE3), purified (Glutathione Sepharose 4B, on-column PreScission cleavage, Superdex 75); not shown: GST, N-terminal, cleaved) GMQLEDLKQQLQQAEEALVAKQEVIDKLKEEAEQHKIVMETVPVLKAQADIYKADFQAERQAREKLAEKKELLQEQLEQLQREYSKLKAS	2
